Laboratory results: article doi:10.1101/591909

Target: AP2M (UniProt P84091)
Experiment: cell-free ELISA, antibody-captured AP2M, biotinylated peptide
Details: reference: unphosphorylated control peptide; sites Y816

- binding against the reference: stronger
Substance: TRKB (C-terminal peptide) C-terminus, last 26 aa (from UniProt Q63604) pY816 peptide
